Assay results from patent publication US20240043489A1, “Cytokine Prodrugs Comprising a Cleavable Linker” (Trutino Biosciences Inc., priority 2020, published 2024).

Tests used:
MMP9 = target: T1, MMP9 (Mus musculus, UniProt P41245); assay: Cleavage of fusion protein by MMP9 protease (SDS-PAGE / Western blot); type: biochemical
T1 construct: purchased R&D Systems
Procedure: (§1) Recombinant MMP9 and/or MMP2 (R&D Systems) was first activated with p-aminophenylmercuric acetate and this activated protease or equivalent amount of activating solution without the protease was used to digest or mock digest the fusion protein for 1 hr, 2 hr, 4 hr and overnight (18-22 hr) at 37 C. Cleavage assays are set up in TCNB buffer: 50 mM Tris, 10 mM CaCl2), 150 mM NaCl, 0.05% Brij-35 (w/v), pH 7.5. Digested protein was aliquoted and stored at −80° C. prior to testing. Aliquots of digests were subsequently analyzed by SDS-PAGE followed by Western blotting to evaluate the extent of cleavage. Digests were also assessed in functional assays such as CTLL-2 proliferation and HEK-Blue Interleukin reporter assays. As shown in FIGS. 2A-E, essentially complete cleavage by MMP9 protease of the fusion proteins with functional site is seen after overnight incubation. In contrast, proteins containing a scrambled MMP cleavage site are not cut (FIG. 2E).
Untreated and digested fusion proteins were evaluated for cleavage products by Western blot. The following monoclonal antibodies were used: rat anti-mouse IL-2 antibody (JES6-1A12; ThermoFisher), goat anti-mouse IL-2 polyclonal antibody (AF-402-NA; R&D systems), mouse anti-6xHis monoclonal antibody (MA1-21315, ThermoFisher), Anti-mIgG Fc HRP conjugated (ThermoFisher cat #A16084), and Anti-human IL2 antibody (Invitrogen, cat #MA5-17097, mouse IgG1). Detection was performed using either a goat anti-rat HRP-conjugated antibody, Donkey Anti-goat HRP-conjugated antibody or Goat Anti-mouse HIRP conjugated (Jackson Immuno Research, West Grove, PA) and developed using the SuperSignal West Femto Maximum sensitivity detection reagent (ThermoFisher) following the manufacturer's recommendations.

CTLL-2 cells = assay: CTLL-2 proliferation assay (MTT); type: cell-based
Procedure: as §1
IL-2 activity was measured using either CTLL-2 cells (ATCC) or the reporter cell line HEK Blue IL2 (Invivogen, San Diego). In brief, for the CTLL-2 assay a titration of untreated and digested samples is added to 40 000 CTLL-2 cells per well in 100 ul medium in a 96-well plate and incubated at 37C in 5% CO2 for 18-22 hr. At the end of this period, 50ug/well Thiazolyl Blue Tetrazolium Bromide (MTT) (Sigma-Aldrich) was added and the plate was incubated for 5 hr at 37C in 5% CO2. Cells were lysed with 100 µl/well 10% SDS (Sigma) acidified with HCl, incubated at 37C for 4 hr, and absorbance was read at 570 nm. Recombinant human or mouse IL-2 (Peprotech and R&D systems respectively) was used as a positive control. FIGS. 3A-B, 3K-L and 3N-P show examples of untreated and digested fusion proteins evaluated in CTLL-2 proliferation assay.

[1] = In vitro serum stability of fusion protein (sandwich ELISA); type: in vitro ADME; details: 37C up to 72 h; serum of naive and MC38 tumor bearing C57BL/6 mice
Procedure: We developed an ELISA assay to detect and quantify fusion proteins comprising IL-2 and IL-2Rα moieties. Wells of a 96-well plate are coated overnight with 100 uL of a rat anti-mouse IL-2 monoclonal antibody (JES6-1A12; ThermoFisher) at […] in PBS. After washing, wells are blocked with TBS/0.05% Tween 20/1% BSA, then fusion proteins and/or unknown biological samples are added for 1 hr at room temperature. After washing, an anti-mouse IL-2Rα biotin-labelled detection antibody (BAF2438, R&D systems) is added and binding is detected using Ultra Strepavidin HRP (ThermoFisher). The ELISA plate was developed by adding the chromogenic tetramethylbenzidine substrate (Ultra TMB, ThermoFisher). The reaction is stopped by addition of 0.5M H2SO4 and the absorbance is read at 450-650 nm.
Construct B was incubated at 37C for up to 72 h with serum collected from 8 weeks old female C57BL/6 naive and MC38 tumor bearing mice respectively (n=2 per serum type, tumor volume >3000 mm3 at time of collection), in order to examine both non-specific cleavage as well as MMP-specific off-target cleavage. Samples were collected at 0 h, 4 h, 8 h, 24 h, 48 h and 72 h and the intact non-MMP cleaved fusion protein was quantified using an in-house developed sandwich ELISA.

B16F10 = assay: In vivo efficacy in B16F10 melanoma model (Example 12)
Procedure: (§2) For the efficacy studies, C57BL/6 or BALB/c mice were subcutaneously inoculated with malignant cells and when the average tumor volume reached on average 90 mm^3, animals were randomized into 2 groups based on tumor volumes (n=10 mice per treatment group). Mice were dosed intravenously every 3 days (Q3D) at 20 mg/kg. Tumors, body weights and clinical observations were measured/collected twice a week for the duration of the study. Tumor volume is shown in FIGS. 10A-D, 11A, 12A, and 13B-C. […] Liver and kidney enzyme results corresponding to FIGS. 11A and 12A are shown in FIGS. 11B-D and 12B-D, respectively.

CT-26 = assay: In vivo efficacy in CT-26 colorectal syngeneic model; parameters: species or system mice; details: CT-26, BALB/c, 20 mpk IV Q3D, D13
Procedure: as §2

RM-1 = assay: In vivo efficacy in RM-1 prostate cancer model
Procedure: as §2

fibronectin = fibronectin (Homo sapiens, UniProt P02751); assay: IL-2 fusion protein plate binding assay to fibronectin
Procedure: A similar plate-based assay was developed to interrogate binding of IL-2 fusion variants to fibronectin. 96-well plates were coated with 4 ug/mL of fibronectin (Sigma) or control BSA for 18-22 h at room temperature on shaker (350 rpm). After washing, wells are blocked with protein-free blocking buffer (Pierce) for 90 min, then fusion proteins are titrated in blocking buffer-0.1% Tween 20 pH 7.5 and/or pH 6 and added for 1 hr at room temperature with shaking. After washing, an anti-mouse IL-2 biotin-labelled detection antibody (JES6-5H4, ThermoFisher) is added and binding is detected using Ultra Streptavidin HRP (ThermoFisher). The plate was developed by adding the chromogenic tetramethylbenzidine substrate (Ultra TMB, ThermoFisher). The reaction is stopped by addition of 0.5M H2SO4 and the absorbance is read at 450-650 nm.

T1 sequence (P41245 108-730): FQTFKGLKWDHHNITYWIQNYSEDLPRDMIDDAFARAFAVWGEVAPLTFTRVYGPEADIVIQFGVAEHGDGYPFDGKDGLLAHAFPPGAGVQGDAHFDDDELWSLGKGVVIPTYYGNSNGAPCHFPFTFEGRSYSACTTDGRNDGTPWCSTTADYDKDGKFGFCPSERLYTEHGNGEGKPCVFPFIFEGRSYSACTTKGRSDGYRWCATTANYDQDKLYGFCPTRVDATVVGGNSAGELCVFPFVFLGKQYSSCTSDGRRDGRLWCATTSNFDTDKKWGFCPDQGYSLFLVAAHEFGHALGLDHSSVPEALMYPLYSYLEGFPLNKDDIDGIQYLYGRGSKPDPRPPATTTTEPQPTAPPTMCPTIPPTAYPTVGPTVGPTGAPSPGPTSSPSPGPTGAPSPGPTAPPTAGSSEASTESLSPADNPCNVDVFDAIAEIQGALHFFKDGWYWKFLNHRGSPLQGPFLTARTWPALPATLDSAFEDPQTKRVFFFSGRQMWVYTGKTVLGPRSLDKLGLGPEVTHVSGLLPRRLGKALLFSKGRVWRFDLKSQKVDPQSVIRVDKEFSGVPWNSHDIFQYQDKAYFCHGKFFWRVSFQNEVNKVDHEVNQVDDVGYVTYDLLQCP
Sequence of fibronectin (P02751 32-2477, species assumed): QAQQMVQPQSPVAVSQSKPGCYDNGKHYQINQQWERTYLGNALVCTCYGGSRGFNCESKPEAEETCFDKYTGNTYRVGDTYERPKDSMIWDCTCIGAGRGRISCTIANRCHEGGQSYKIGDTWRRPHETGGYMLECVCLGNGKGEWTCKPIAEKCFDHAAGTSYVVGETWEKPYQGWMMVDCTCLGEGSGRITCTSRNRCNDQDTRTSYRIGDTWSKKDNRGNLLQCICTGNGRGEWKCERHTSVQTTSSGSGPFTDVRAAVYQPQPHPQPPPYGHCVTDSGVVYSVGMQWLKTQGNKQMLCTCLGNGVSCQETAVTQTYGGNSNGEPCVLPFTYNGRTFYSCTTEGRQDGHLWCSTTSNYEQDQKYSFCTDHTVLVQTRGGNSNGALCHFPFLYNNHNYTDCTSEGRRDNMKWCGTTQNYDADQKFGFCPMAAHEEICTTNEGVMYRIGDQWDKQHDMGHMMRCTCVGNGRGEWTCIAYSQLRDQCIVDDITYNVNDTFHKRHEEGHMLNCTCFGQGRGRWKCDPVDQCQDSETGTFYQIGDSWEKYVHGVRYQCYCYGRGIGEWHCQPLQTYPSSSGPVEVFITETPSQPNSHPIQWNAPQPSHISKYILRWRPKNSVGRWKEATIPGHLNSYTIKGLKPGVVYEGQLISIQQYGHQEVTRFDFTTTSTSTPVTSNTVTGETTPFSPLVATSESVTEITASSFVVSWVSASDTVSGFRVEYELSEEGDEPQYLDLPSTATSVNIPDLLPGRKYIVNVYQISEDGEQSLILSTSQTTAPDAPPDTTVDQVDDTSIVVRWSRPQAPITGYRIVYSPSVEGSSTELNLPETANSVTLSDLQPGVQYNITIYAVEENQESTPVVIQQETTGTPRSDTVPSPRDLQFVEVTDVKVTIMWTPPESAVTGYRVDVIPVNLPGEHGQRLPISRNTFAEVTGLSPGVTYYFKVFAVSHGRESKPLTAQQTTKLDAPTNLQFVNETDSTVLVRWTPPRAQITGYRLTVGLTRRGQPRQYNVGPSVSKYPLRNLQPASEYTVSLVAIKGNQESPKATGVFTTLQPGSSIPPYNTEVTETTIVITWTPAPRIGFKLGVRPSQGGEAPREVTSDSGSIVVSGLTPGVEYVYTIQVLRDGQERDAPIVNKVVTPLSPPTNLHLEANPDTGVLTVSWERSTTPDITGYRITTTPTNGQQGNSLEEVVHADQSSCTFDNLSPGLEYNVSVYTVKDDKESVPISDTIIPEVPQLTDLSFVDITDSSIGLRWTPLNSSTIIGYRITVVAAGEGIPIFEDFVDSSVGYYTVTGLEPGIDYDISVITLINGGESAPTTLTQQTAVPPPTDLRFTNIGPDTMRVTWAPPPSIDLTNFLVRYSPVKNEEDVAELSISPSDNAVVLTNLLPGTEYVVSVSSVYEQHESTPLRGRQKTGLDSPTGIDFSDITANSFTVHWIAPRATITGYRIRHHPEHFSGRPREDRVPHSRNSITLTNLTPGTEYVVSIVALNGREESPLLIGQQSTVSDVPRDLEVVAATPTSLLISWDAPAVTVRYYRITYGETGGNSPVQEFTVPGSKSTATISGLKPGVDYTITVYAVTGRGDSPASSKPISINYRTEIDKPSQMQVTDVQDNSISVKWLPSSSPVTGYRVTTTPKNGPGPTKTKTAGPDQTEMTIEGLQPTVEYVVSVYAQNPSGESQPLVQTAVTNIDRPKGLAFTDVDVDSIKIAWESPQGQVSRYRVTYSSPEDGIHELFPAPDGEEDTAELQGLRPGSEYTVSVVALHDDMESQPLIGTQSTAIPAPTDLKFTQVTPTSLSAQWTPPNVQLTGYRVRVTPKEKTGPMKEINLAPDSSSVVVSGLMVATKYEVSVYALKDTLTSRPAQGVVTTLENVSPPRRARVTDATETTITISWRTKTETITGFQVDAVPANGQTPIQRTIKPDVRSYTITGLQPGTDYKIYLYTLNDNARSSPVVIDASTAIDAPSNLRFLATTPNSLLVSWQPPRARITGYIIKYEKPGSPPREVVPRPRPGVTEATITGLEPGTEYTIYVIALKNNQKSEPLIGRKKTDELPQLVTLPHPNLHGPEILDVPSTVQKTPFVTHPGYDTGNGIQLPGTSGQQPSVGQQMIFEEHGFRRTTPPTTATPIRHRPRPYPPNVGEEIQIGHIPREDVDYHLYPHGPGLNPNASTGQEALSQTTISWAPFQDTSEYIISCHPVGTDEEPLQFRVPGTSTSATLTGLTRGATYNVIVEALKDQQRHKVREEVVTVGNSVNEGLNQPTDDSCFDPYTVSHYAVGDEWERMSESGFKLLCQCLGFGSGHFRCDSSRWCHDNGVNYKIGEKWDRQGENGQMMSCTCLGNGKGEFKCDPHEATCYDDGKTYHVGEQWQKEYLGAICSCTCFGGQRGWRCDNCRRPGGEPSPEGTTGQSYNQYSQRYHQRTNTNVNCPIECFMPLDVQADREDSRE

B1: Construct B: SEQ ID NO 101: m IL2-2x(SG4)-MMPcs1-2x(G4S)-IL2Ralpha-mIgG1 Fc (protein)
chain: APTSSSTSSSTAEAQQQQQQQQQQQQHLEQLLMDLQELLSRMENYRNLKLPRMLTFKFYLPKQATELKDLQCLEDELGPLRHVLDLTQSKSFQLEDAENFISNIRVTVVKLKGSDNTFECQFDDESATVVDFLRRWIAFCQSIISTSPQSGGGGSGGGGGPLGVRGGGGGSGGGGSELCLYDPPEVPNATFKALSYKNGTILNCECKRGFRRLKELVYMRCLGNSWSSNCQCTSNSHDKSRKQVTAQLEHQKEQQTTTDMQKPTQSMHQENLTGHCREPPPWKHEDSKRIYHFVEGQSVHYECIPGYKALQRGPAISICKMKCGKTGWTQPQLTCVDEREHHRFLASEESQGSRNSSPESETSCPITTTDFPQPTETTAMTETFVLTMEYKGCKPCICTVPEVSSVFIFPPKPKDVLTITLTPKVTCVVVDISKDDPEVQFSWFVDDVEVHTAQTQPREEQFNSTFRSVSELPIMHQDWLNGKEFKCRVNSAAFPAPIEKTISKTKGRPKAPQVYTIPPPKEQMAKDKVSLTCMITDFFPEDITVEWQWNGQPAENYKNTQPIMDTDGSYFVYSKLNVQKSNWEAGNTFTCSVLHEGLHNHHTEKSLSHSPGK
With B1 the “full-length cytokine prodrug remaining” value (MMP9; 20 hour +MMP time point) was “only a faint band”, the “time at which cleavage product was detectable” value (MMP9; +MMP-9 digestion, Western blot) was 1 h and the “CTLL-2 cell proliferation, MMP-9 treated construct” value (CTLL-2 cells; cleaved by MMP-9) was “stimulates CTLL-2 cell proliferation in a dose dependent manner”. The “CTLL-2 cell proliferation, uncleaved construct” value (CTLL-2 cells; uncleaved) was “minimally stimulatory”, the “stability of intact fusion protein in serum” value [1] was “stable” and the “Max TGI %” value (B16F10; B16F10, C57BL/6, 20 mpk IV Q3D, D12) was 49%. For the same molecule, the “signs of toxicity (body weight loss, liver and/or kidney enzymes, clinical observations)” value (B16F10; B16F10 model, 20 mg/kg IV Q3D) was “no signs of toxicity”, the “Max TGI %” value (CT-26) was 46% and the “signs of toxicity (body weight loss, liver and/or kidney enzymes, clinical observations)” value (RM-1; RM-1 model, 20 mg/kg IV Q3D) was “no signs of toxicity”. The “Max TGI %” value (RM-1; RM_1, C57BL/6, 20 mpk IV Q3D, D10) was 58%, the “fibronectin binding at acidic pH” value (fibronectin; pH 6) was “No significant binding” and the “fibronectin binding at pH 7.5” value (fibronectin; pH 7.5 (neutral)) was “No significant binding”.
